From publication PMC10397247

T1: 4H3112-bN
T1 chain: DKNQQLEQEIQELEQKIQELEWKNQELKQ

T2: 4H908-bN
T2 chain: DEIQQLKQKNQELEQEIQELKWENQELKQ

T3: 4H2576-bN
T3 chain: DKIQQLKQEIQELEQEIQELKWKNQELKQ

T4: 4H2618-bN
T4 chain: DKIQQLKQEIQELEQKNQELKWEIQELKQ

T5: 4H3189-bN
T5 chain: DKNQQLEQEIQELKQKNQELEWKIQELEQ

T6: 4H3185-bN
T6 chain: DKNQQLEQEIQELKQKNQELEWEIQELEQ

T7: 4H568-bN
T7 chain: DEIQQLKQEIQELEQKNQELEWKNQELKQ

T8: 4H338-bN
T8 chain: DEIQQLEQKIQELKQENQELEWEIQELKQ

T9: 4H797-bN
T9 chain: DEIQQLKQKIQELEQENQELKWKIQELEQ

T10: 4H2610-bN
T10 chain: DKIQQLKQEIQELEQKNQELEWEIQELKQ

T11: 4H717-bN
T11 chain: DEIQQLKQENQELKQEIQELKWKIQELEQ

T12: 4H687-bN
T12 chain: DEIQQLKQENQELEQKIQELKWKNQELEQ

T13: 4H454-bN
T13 chain: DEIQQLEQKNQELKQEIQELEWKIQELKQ

T14: 4H883-bN
T14 chain: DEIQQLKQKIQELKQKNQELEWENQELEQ

T15: 4H3843-bN
T15 chain: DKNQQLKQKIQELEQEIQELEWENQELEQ

T16: 4H370-bN
T16 chain: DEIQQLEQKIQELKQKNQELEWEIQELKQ

T17: 4H3782-bN
T17 chain: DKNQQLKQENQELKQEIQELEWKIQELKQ

T18: 4H754-bN
T18 chain: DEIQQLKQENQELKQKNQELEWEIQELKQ

T19: 4H2667-bN
T19 chain: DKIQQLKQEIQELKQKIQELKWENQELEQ

T20: 4H2697-bN
T20 chain: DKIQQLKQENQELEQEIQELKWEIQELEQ

T21: 4H3855-bN
T21 chain: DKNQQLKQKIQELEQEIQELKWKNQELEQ

T22: 4H918-bN
T22 chain: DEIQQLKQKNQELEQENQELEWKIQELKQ

T23: 4H2729-bN
T23 chain: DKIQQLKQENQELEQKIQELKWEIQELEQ

T24: 4H967-bN
T24 chain: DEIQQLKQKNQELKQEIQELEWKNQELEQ

T25: 4H949-bN
T25 chain: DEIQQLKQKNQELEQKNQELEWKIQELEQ

T26: 4H953-bN
T26 chain: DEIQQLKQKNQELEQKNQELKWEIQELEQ

T27: 4H3354-bN
T27 chain: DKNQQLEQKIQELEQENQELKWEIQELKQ

T28: 4H72-bN
T28 chain: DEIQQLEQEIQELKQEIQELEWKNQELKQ

T29: 4H4001-bN
T29 chain: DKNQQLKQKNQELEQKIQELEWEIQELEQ

T30: 4H462-bN
T30 chain: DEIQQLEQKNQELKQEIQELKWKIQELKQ

T31: 4H607-bN
T31 chain: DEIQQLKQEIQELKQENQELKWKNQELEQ

T32: 4H3427-bN
T32 chain: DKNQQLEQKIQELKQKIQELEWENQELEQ

T33: 4H3606-bN
T33 chain: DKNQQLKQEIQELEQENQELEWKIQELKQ

T34: 4H331-bN
T34 chain: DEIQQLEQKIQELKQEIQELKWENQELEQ

T35: 4H883-bA
T35 chain: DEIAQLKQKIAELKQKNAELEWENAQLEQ


Legend:
Test in all cases: two-hybrid library CCNG1;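 note: natural log of median RNA to DNA barcode read ratio; higher means stronger binding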
4H3112-bN = target: T1, 4H3112-bN
4H908-bN = target: T2, 4H908-bN
4H2576-bN = target: T3, 4H2576-bN
4H2618-bN = target: T4, 4H2618-bN
4H3189-bN = target: T5, 4H3189-bN
4H3185-bN = target: T6, 4H3185-bN
4H568-bN = target: T7, 4H568-bN
4H338-bN = target: T8, 4H338-bN
4H797-bN = target: T9, 4H797-bN
4H2610-bN = target: T10, 4H2610-bN
4H717-bN = target: T11, 4H717-bN
4H687-bN = target: T12, 4H687-bN
4H454-bN = target: T13, 4H454-bN
4H883-bN = target: T14, 4H883-bN
4H3843-bN = target: T15, 4H3843-bN
4H370-bN = target: T16, 4H370-bN
4H3782-bN = target: T17, 4H3782-bN
4H754-bN = target: T18, 4H754-bN
4H2667-bN = target: T19, 4H2667-bN
4H2697-bN = target: T20, 4H2697-bN
4H3855-bN = target: T21, 4H3855-bN
4H918-bN = target: T22, 4H918-bN
4H2729-bN = target: T23, 4H2729-bN
4H967-bN = target: T24, 4H967-bN
4H949-bN = target: T25, 4H949-bN
4H953-bN = target: T26, 4H953-bN
4H3354-bN = target: T27, 4H3354-bN
4H72-bN = target: T28, 4H72-bN
4H4001-bN = target: T29, 4H4001-bN
4H462-bN = target: T30, 4H462-bN
4H607-bN = target: T31, 4H607-bN
4H3427-bN = target: T32, 4H3427-bN
4H3606-bN = target: T33, 4H3606-bN
4H331-bN = target: T34, 4H331-bN
4H883-bA = target: T35, 4H883-bA

| interaction score (4H3189-bN) | interaction score (4H568-bN) | interaction score (4H797-bN) | interaction score (4H2610-bN) | interaction score (4H687-bN) | interaction score (4H883-bN) | interaction score (4H3843-bN) | interaction score (4H370-bN) | interaction score (4H3782-bN) | interaction score (4H2667-bN) | interaction score (4H2697-bN) | interaction score (4H918-bN) | interaction score (4H967-bN) | interaction score (4H953-bN) | interaction score (4H72-bN) | interaction score (4H4001-bN) | interaction score (4H462-bN) | interaction score (4H607-bN) | interaction score (4H3606-bN) | interaction score (4H331-bN) | Binder | further results |
| --- | --- | --- | --- | --- | --- | --- | --- | --- | --- | --- | --- | --- | --- | --- | --- | --- | --- | --- | --- | --- | --- |
| 0.118 | -0.0699 | -2.07 | -0.395 | -0.515 | 1.47 | -0.264 | 0.65 | -0.233 | 1.21 | -0.235 | -1.21 | -1.08 | -1.09 | 1.58 | 0.0889 | 0.0924 | -0.239 | -0.101 | 1.55 | DKIQQLKQEIQELEQEIQELKWKNQELKQ [4H2576-bN] | interaction score (4H3112-bN): -0.405; interaction score (4H908-bN): -0.577; interaction score (4H2576-bN): 1.12; interaction score (4H2618-bN): 0.876; interaction score (4H3185-bN): 0.148; interaction score (4H338-bN): 0.787; interaction score (4H717-bN): -0.909; interaction score (4H454-bN): -0.887; interaction score (4H754-bN): 0.456; interaction score (4H3855-bN): 1.04; interaction score (4H2729-bN): 1.74; interaction score (4H949-bN): 0.288; interaction score (4H3354-bN): -1.26; interaction score (4H3427-bN): -2.5 |
| -0.821 | -0.762 | -1.16 | 0.245 | -1.82 | -0.137 | 0.0276 | -2.72 | -1.11 | 0.011 | -0.363 | -0.666 | -0.795 | -0.363 | -1.85 | -0.736 | 1.63 | -0.966 | -1.38 | 0.616 | DKIQQLKQEIQELEQKNQELEWEIQELKQ [4H2610-bN] | interaction score (4H883-bA): 0.288 |
